System: Escherichia coli TOP10
Assay: shrunken log2 fold change of peptide-encoding DNA abundance (4.5 h post-induction vs induction); higher = less antimicrobial activity (less host growth inhibition)
Conditions: time post-induction: 4.5 h; library: site-saturation at positions 5, 18, 19, 20
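Further: peptides expressed intracellularly from a pBAD plasmid library in pooled LB shake-flask culture, induced with 0.3% L-arabinose, DNA abundance read by NGS, three biological replicates, DESeq2 with apeglm shrinkage.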

Row | Sequence | shrunken log2 fold change
1 | RRIRQRPPRLPRPRPRPMICPRP | 0.013
2 | RRIRQRPPRLPRPRPRPHYMPRP | -0.474
3 | RRIRERPPRLPRPRPRPVQMPRP | -0.115
4 | RRIRIRPPRLPRPRPRPINLPRP | -0.146
5 | RRIRFRPPRLPRPRPRPFYSPRP | -0.0734
6 | RRIRLRPPRLPRPRPRPNYLPRP | -0.377
7 | RRIRPRPPRLPRPRPRPLWTPRP | 0.0798
8 | RRIRCRPPRLPRPRPRPWPFPRP | -0.121
9 | RRIRPRPPRLPRPRPRPMCPPRP | -0.267
10 | RRIRLRPPRLPRPRPRPKNIPRP | -0.499
11 | RRIRHRPPRLPRPRPRPKQLPRP | -0.553
12 | RRIRFRPPRLPRPRPRPKRHPRP | 0.134
13 | RRIRCRPPRLPRPRPRPAPGPRP | 0.75
14 | RRIRTRPPRLPRPRPRPMFLPRP | -0.593
15 | RRIRERPPRLPRPRPRPCNWPRP | -0.0685
16 | RRIRYRPPRLPRPRPRPNAPPRP | -0.228
17 | RRIRGRPPRLPRPRPRPMWPPRP | 1.07
18 | RRIRDRPPRLPRPRPRPIDHPRP | -0.273
19 | RRIRRRPPRLPRPRPRPFRRPRP | 0.322
20 | RRIRIRPPRLPRPRPRPKLRPRP | 0.349
21 | RRIRGRPPRLPRPRPRPVDTPRP | 0.678
22 | RRIRLRPPRLPRPRPRPMLVPRP | -0.225
23 | RRIRPRPPRLPRPRPRPFWVPRP | 0.0111
24 | RRIRLRPPRLPRPRPRPFAGPRP | 0.024
25 | RRIRMRPPRLPRPRPRPDEMPRP | 0.0155

Row | Sequence | shrunken log2 fold change
26 | RRIRYRPPRLPRPRPRPLTVPRP | -0.146
27 | RRIRNRPPRLPRPRPRPRDCPRP | 0.0442
28 | RRIRRRPPRLPRPRPRPGMVPRP | 0.308
29 | RRIRLRPPRLPRPRPRPAGTPRP | 0.216
30 | RRIRARPPRLPRPRPRPTTEPRP | 0.443
31 | RRIRWRPPRLPRPRPRPTWNPRP | 0.306
32 | RRIRCRPPRLPRPRPRPLQRPRP | 0.203
33 | RRIRFRPPRLPRPRPRPVPKPRP | -0.208
34 | RRIRERPPRLPRPRPRPDHMPRP | -0.0199
35 | RRIRIRPPRLPRPRPRPCAHPRP | 0.0482
36 | RRIRWRPPRLPRPRPRPDLTPRP | 0.251
37 | RRIRTRPPRLPRPRPRPAWAPRP | 1.53
38 | RRIRMRPPRLPRPRPRPSVDPRP | 0.508
39 | RRIRSRPPRLPRPRPRPMLHPRP | -0.424
40 | RRIRWRPPRLPRPRPRPMICPRP | -0.00725
41 | RRIRARPPRLPRPRPRPAFHPRP | -0.115
42 | RRIRQRPPRLPRPRPRPLRRPRP | 2.24
43 | RRIRGRPPRLPRPRPRPRGLPRP | 1.05
44 | RRIRDRPPRLPRPRPRPPSRPRP | -0.0515
45 | RRIRHRPPRLPRPRPRPSTNPRP | -0.275
46 | RRIRVRPPRLPRPRPRPQKGPRP | -0.036
47 | RRIRCRPPRLPRPRPRPDKIPRP | -0.24
48 | RRIRNRPPRLPRPRPRPFCGPRP | -0.108
49 | RRIRGRPPRLPRPRPRPQTGPRP | 0.162
50 | RRIRPRPPRLPRPRPRPVTNPRP | -0.299

Row | Sequence | shrunken log2 fold change
51 | RRIRIRPPRLPRPRPRPKVSPRP | 0.0423
52 | RRIRARPPRLPRPRPRPIMPPRP | 0.167
53 | RRIRTRPPRLPRPRPRPQEKPRP | -0.0148
54 | RRIRFRPPRLPRPRPRPHFSPRP | -0.24
55 | RRIRFRPPRLPRPRPRPCMWPRP | -0.258
56 | RRIRCRPPRLPRPRPRPTNKPRP | -0.0578
57 | RRIRIRPPRLPRPRPRPQSSPRP | 0.00983
58 | RRIRFRPPRLPRPRPRPTFGPRP | 0.0623
59 | RRIRYRPPRLPRPRPRPKFIPRP | -1.39
60 | RRIRQRPPRLPRPRPRPITNPRP | -0.158
61 | RRIRMRPPRLPRPRPRPTMPPRP | 0.174
62 | RRIRNRPPRLPRPRPRPPIDPRP | -0.306
63 | RRIRSRPPRLPRPRPRPDDVPRP | 0.14
64 | RRIRMRPPRLPRPRPRPLDDPRP | 3.25
65 | RRIRFRPPRLPRPRPRPPCTPRP | -0.228
66 | RRIRCRPPRLPRPRPRPDWAPRP | 0.0311
67 | RRIRERPPRLPRPRPRPLTEPRP | -0.298
68 | RRIRIRPPRLPRPRPRPTGCPRP | -0.0215
69 | RRIRPRPPRLPRPRPRPTYQPRP | -0.0514
70 | RRIRYRPPRLPRPRPRPVNTPRP | -0.473
71 | RRIRKRPPRLPRPRPRPWGHPRP | -0.0374
72 | RRIRGRPPRLPRPRPRPWREPRP | 0.599
73 | RRIRHRPPRLPRPRPRPDAGPRP | -0.0143
74 | RRIRVRPPRLPRPRPRPWMEPRP | -0.124
75 | RRIRRRPPRLPRPRPRPCAAPRP | 0.743

Row | Sequence | shrunken log2 fold change
76 | RRIRRRPPRLPRPRPRPVCMPRP | 0.32
77 | RRIRMRPPRLPRPRPRPNNWPRP | -0.0238
78 | RRIRRRPPRLPRPRPRPVINPRP | -0.0966
79 | RRIRLRPPRLPRPRPRPPPNPRP | 1.18
80 | RRIRERPPRLPRPRPRPTEHPRP | -0.144
81 | RRIRRRPPRLPRPRPRPQMPPRP | 0.283
82 | RRIRRRPPRLPRPRPRPTYIPRP | -0.12
83 | RRIRNRPPRLPRPRPRPGINPRP | -0.253
84 | RRIRVRPPRLPRPRPRPPSWPRP | 0.34
85 | RRIRNRPPRLPRPRPRPNVIPRP | -0.261
86 | RRIRPRPPRLPRPRPRPWSNPRP | -0.52
87 | RRIRQRPPRLPRPRPRPMILPRP | -0.109
88 | RRIRIRPPRLPRPRPRPWEVPRP | -0.00884
89 | RRIRWRPPRLPRPRPRPMRMPRP | 0.329
90 | RRIRKRPPRLPRPRPRPVIPPRP | -0.26
91 | RRIRRRPPRLPRPRPRPHADPRP | 0.573
92 | RRIRNRPPRLPRPRPRPRTNPRP | -0.166
93 | RRIRPRPPRLPRPRPRPESYPRP | -0.00116
94 | RRIRFRPPRLPRPRPRPPHDPRP | 0.336
95 | RRIRKRPPRLPRPRPRPCDFPRP | -0.231
96 | RRIRRRPPRLPRPRPRPYCKPRP | -0.24
97 | RRIRSRPPRLPRPRPRPFQQPRP | 0.000179
98 | RRIRPRPPRLPRPRPRPRITPRP | 0.0754
99 | RRIRCRPPRLPRPRPRPQRHPRP | -0.173
100 | RRIRPRPPRLPRPRPRPVEKPRP | 0.00127

Row | Sequence | shrunken log2 fold change
101 | RRIRIRPPRLPRPRPRPCYDPRP | -0.014
102 | RRIRCRPPRLPRPRPRPLNYPRP | 0.101
103 | RRIRGRPPRLPRPRPRPHSEPRP | 0.194
104 | RRIRNRPPRLPRPRPRPHQGPRP | -0.0861
105 | RRIRLRPPRLPRPRPRPGKNPRP | -0.304
106 | RRIRDRPPRLPRPRPRPYLFPRP | 1.15
107 | RRIRVRPPRLPRPRPRPQKFPRP | -0.278
108 | RRIRARPPRLPRPRPRPVHWPRP | 0.579
109 | RRIRARPPRLPRPRPRPHNGPRP | 0.0647
110 | RRIRARPPRLPRPRPRPDCAPRP | 0.826
111 | RRIRDRPPRLPRPRPRPWTFPRP | -0.22
112 | RRIRERPPRLPRPRPRPVKQPRP | -0.0109
113 | RRIRMRPPRLPRPRPRPQRIPRP | -0.0462
114 | RRIRHRPPRLPRPRPRPWTDPRP | -0.0171
115 | RRIRQRPPRLPRPRPRPHEPPRP | -0.00369
116 | RRIRMRPPRLPRPRPRPHSPPRP | -0.114
117 | RRIRARPPRLPRPRPRPLFFPRP | 0.577
118 | RRIRKRPPRLPRPRPRPLEGPRP | 0.162
119 | RRIRERPPRLPRPRPRPGLPPRP | -0.112
120 | RRIRGRPPRLPRPRPRPDLWPRP | 1.79
121 | RRIRMRPPRLPRPRPRPFYIPRP | -0.31
122 | RRIRCRPPRLPRPRPRPQPNPRP | 0.0742
123 | RRIRARPPRLPRPRPRPKGLPRP | 0.433
124 | RRIRDRPPRLPRPRPRPSVLPRP | -0.246
125 | RRIRGRPPRLPRPRPRPCIPPRP | -0.165

Row | Sequence | shrunken log2 fold change
126 | RRIRCRPPRLPRPRPRPLDFPRP | -0.175
127 | RRIRRRPPRLPRPRPRPIPKPRP | 0.0997
128 | RRIRFRPPRLPRPRPRPFSFPRP | -0.499
129 | RRIRCRPPRLPRPRPRPMGMPRP | -0.184
130 | RRIRYRPPRLPRPRPRPHYAPRP | -0.0853
131 | RRIRQRPPRLPRPRPRPVSVPRP | 0.028
132 | RRIRCRPPRLPRPRPRPEDGPRP | -0.0134
133 | RRIRFRPPRLPRPRPRPYNAPRP | -0.714
134 | RRIRVRPPRLPRPRPRPVCYPRP | 0.0382
135 | RRIRHRPPRLPRPRPRPNYEPRP | -0.586
136 | RRIRQRPPRLPRPRPRPSMNPRP | -0.568
137 | RRIRIRPPRLPRPRPRPVHWPRP | 0.0203
138 | RRIRCRPPRLPRPRPRPVDPPRP | 0.227
139 | RRIRGRPPRLPRPRPRPDMAPRP | 0.882
140 | RRIRARPPRLPRPRPRPTSQPRP | 0.211
141 | RRIRGRPPRLPRPRPRPRDYPRP | 0.258
142 | RRIRARPPRLPRPRPRPDDAPRP | 0.138
143 | RRIRVRPPRLPRPRPRPGVFPRP | 0.117
144 | RRIRRRPPRLPRPRPRPFNGPRP | 0.0131
145 | RRIRQRPPRLPRPRPRPKSMPRP | -0.179
146 | RRIRMRPPRLPRPRPRPWPNPRP | 0.25
147 | RRIRQRPPRLPRPRPRPQHGPRP | -0.000236
148 | RRIRIRPPRLPRPRPRPLNEPRP | -0.497
149 | RRIRGRPPRLPRPRPRPKICPRP | -0.0723
150 | RRIRTRPPRLPRPRPRPHIEPRP | -0.0284
